Assay results from patent EP2658867B1 (Avidbiotics Corp., dated 2018).
Like-named read-outs stand apart in the source and are kept apart here.

Experiments:
integrin αVβ5 [1] = target: T1, integrin αVβ5 (UniProt P06756 31-992; P18084 24-719); assay: ELISA, integrin coated, anti-MICA-HRP
T1 construct: Coated on the ELISA plate

integrin αVβ3 [2] = target: T2, integrin αVβ3 (UniProt P06756 31-992; P05106 27-718); assay: ELISA, integrin coated, anti-MICA-HRP
T2 construct: Coated on the ELISA plate

integrin αVβ5 [3] = target: T1, integrin αVβ5; assay: ELISA, integrin coated, anti-MICA-HRP; remark: listed apart in the source
integrin αVβ3 [4] = target: T2, integrin αVβ3; assay: ELISA, integrin coated, anti-MICA-HRP; remark: listed apart in the source
integrin αVβ5 [5] = target: T1, integrin αVβ5; assay: phage ELISA, integrin coated, anti-M13-HRP
integrin αVβ3 [6] = target: T2, integrin αVβ3; assay: phage ELISA, integrin coated, anti-M13-HRP

T2 sequence (P06756 31-992, chain 1 of 2): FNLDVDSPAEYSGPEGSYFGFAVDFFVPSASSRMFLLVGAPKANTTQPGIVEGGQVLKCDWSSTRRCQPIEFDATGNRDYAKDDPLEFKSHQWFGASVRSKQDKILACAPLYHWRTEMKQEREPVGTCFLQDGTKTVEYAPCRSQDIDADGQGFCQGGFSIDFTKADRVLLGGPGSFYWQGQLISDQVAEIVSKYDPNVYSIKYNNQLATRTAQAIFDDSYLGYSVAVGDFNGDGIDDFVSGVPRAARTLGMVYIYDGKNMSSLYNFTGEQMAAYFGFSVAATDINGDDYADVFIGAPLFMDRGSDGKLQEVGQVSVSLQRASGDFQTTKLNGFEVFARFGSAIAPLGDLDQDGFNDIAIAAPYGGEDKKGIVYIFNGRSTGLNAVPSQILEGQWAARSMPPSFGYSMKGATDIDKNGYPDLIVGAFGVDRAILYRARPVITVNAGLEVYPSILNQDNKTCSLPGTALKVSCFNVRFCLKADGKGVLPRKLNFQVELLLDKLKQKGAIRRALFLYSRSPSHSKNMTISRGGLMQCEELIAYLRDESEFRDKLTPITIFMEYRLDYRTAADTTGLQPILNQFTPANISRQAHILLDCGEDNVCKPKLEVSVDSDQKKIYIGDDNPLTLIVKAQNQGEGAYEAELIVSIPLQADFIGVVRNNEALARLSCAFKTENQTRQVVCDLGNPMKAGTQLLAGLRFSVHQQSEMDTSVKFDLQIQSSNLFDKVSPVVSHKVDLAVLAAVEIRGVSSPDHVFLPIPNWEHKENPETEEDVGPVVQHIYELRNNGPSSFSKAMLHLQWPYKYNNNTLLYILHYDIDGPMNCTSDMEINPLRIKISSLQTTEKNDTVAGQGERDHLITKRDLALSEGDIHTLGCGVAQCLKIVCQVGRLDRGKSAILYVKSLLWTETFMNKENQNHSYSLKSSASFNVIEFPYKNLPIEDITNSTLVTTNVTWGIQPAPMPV
T2 sequence (P05106 27-718, chain 2 of 2): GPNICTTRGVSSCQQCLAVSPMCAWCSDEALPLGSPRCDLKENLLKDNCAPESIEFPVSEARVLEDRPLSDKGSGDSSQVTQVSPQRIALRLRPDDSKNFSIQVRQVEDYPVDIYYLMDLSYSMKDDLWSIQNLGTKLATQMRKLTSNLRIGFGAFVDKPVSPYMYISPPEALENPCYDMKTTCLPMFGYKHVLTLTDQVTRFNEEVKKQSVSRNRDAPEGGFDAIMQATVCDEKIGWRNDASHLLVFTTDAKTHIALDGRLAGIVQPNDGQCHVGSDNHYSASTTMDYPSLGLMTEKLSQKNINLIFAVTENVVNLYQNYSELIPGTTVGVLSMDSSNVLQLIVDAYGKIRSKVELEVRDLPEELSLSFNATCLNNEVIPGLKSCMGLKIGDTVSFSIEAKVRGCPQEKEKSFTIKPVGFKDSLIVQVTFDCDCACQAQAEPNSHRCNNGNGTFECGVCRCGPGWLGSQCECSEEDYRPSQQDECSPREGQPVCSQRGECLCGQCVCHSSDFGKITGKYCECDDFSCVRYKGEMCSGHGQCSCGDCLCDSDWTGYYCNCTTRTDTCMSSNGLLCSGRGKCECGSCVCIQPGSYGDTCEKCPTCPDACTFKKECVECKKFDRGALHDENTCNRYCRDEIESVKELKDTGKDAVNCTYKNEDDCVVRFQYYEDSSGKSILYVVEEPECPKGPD
T1 sequence (P06756 31-992, chain 1 of 2): as the sequence (P06756 31-992, chain 1 of 2) above
T1 sequence (P18084 24-719, chain 2 of 2): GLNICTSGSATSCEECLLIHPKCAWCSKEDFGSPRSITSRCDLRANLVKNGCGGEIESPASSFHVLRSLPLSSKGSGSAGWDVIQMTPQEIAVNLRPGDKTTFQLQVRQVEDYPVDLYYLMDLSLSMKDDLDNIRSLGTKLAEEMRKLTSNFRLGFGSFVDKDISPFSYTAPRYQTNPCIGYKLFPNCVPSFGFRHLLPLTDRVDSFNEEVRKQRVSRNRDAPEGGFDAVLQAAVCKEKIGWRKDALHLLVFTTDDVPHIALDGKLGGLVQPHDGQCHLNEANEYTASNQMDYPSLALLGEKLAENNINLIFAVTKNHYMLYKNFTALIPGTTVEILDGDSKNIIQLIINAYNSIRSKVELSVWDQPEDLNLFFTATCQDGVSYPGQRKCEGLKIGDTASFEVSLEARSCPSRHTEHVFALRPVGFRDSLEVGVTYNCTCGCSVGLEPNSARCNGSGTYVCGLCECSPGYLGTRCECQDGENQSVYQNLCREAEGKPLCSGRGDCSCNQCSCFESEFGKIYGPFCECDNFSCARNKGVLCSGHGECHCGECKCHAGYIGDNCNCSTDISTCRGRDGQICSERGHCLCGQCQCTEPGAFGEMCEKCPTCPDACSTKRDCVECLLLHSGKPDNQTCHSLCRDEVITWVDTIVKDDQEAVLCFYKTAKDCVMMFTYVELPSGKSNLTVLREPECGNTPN

Binder | signal (integrin αVβ5 [5]) [OD] | signal (integrin αVβ3 [6]) [OD] | other results
soluble MICA generated by pKK46 (extended loop 5.1sp in loop 1) (designed binder) HHHHHHEPHSLRYNLTVLSWDGSVQSGFLTEVHLDGQPFLRCDRQKCRAKPQGQWAEDVLGNKTWDRETRDLTGNGKDLRMTLAHIKDQKEGLHSLQEIRVCEIHEDNSTRSSQHFYYDGELFLSQNLETEEWTMPQSSRAQTLAMNVRNFLKEDAMKTKTHYHAMHADCLQELRRYLKSGVVLRRTVPPMVNVTSGGSGGGSVTRGDTFTQSSGGSGGGVTCRASGFYPWNITLSWRQDGVSLSHDTQQWGDVLPDGNGTYQTWVATRICQGEEQRFTCYMEHSGNHSTHPVPSGK | – | – | signal (integrin αVβ5 [1]): 1.06 OD; signal/ng (integrin αVβ5 [1]): 25.5 signal/ng; signal (integrin αVβ3 [2]): 0.384 OD; signal/ng (integrin αVβ3 [2]): 9.2 signal/ng; signal (integrin αVβ5 [3]): 0.66 OD; signal/ng (integrin αVβ5 [3]): 13.3 signal/ng; signal (integrin αVβ3 [4]): 0.467 OD; signal/ng (integrin αVβ3 [4]): 9.42 signal/ng
M13 phage pKK94 displaying MICA α3 domain with loop 3.3 in loop 1 (designed binder, not shown: large carriers) TVPPMVNVTRVPRGDSDLTVTCRASGFYPWNITLSWRQDGVSLSHDTQQWGDVLPDGNGTYQTWVATRICQGEEQRFTCYMEHSGNHSTHPVPSGK | 2.84 | 1.07 | –
M13 phage pKK98 displaying MICA α3 domain with loop 5.3 in loop 1 (designed binder, not shown: large carriers) TVPPMVNVTHLARGDDLTYVTCRASGFYPWNITLSWRQDGVSLSHDTQQWGDVLPDGNGTYQTWVATRICQGEEQRFTCYMEHSGNHSTHPVPSGK | 1.48 | 1.22 | –
M13 phage pKK95 displaying MICA α3 domain with loop 3.4 in loop 1 (designed binder, not shown: large carriers) TVPPMVNVTRSARGDSDHRVTCRASGFYPWNITLSWRQDGVSLSHDTQQWGDVLPDGNGTYQTWVATRICQGEEQRFTCYMEHSGNHSTHPVPSGK | 0.232 | 0.345 | –
M13 phage pKK106 displaying wild type MICA α3 domain fused to pIII (other, also called WT; not shown: M13 phage capsid protein pIII, C-terminal portion, fused at codon position 198) TVPPMVNVTRSEASEGNITVTCRASGFYPWNITLSWRQDGVSLSHDTQQWGDVLPDGNGTYQTWVATRICQGEEQRFTCYMEHSGNHSTHPVPSGK | 0 | 0 | –
M13 phage pKK96 displaying MICA α3 domain with loop 5.1 in loop 1 (designed binder, not shown: large carriers) TVPPMVNVTVTRGDTFTQSVTCRASGFYPWNITLSWRQDGVSLSHDTQQWGDVLPDGNGTYQTWVATRICQGEEQRFTCYMEHSGNHSTHPVPSGK | 2.42 | 1.64 | –
M13 phage pKK93 displaying MICA α3 domain with loop 3.2 in loop 1 (designed binder, not shown: large carriers) TVPPMVNVTRTSRGDHPRTQVTCRASGFYPWNITLSWRQDGVSLSHDTQQWGDVLPDGNGTYQTWVATRICQGEEQRFTCYMEHSGNHSTHPVPSGK | 0.291 | 0.284 | signal (integrin αVβ5 [5]; record 2): 0.774 OD; signal (integrin αVβ3 [6]; record 2): 0.616 OD
M13 phage pKK107 displaying MICA α3 domain with tight T-3.1 in loop 1 (designed binder, not shown: large carriers) TVPPMVNTSRGDHPRTQCRASGFYPWNITLSWRQDGVSLSHDTQQWGDVLPDGNGTYQTWVATRICQGEEQRFTCYMEHSGNHSTHPVPSGK | 1.49 | 0.999 | –
M13 phage pKK110 displaying MICA α3 domain with tight T-5.1 in loop 1 (designed binder, not shown: large carriers) TVPPMVNVTRGDTFTQSCRASGFYPWNITLSWRQDGVSLSHDTQQWGDVLPDGNGTYQTWVATRICQGEEQRFTCYMEHSGNHSTHPVPSGK | 2.56 | 1.49 | –
M13 phage pKK109 displaying MICA α3 domain with tight T-3.3 in loop 1 (designed binder, not shown: large carriers) TVPPMVNRVPRGDSDLTCRASGFYPWNITLSWRQDGVSLSHDTQQWGDVLPDGNGTYQTWVATRICQGEEQRFTCYMEHSGNHSTHPVPSGK | 0.167 | 0.23 | –
M13 phage pKK111 displaying MICA α3 domain with tight T-5.3 in loop 1 (designed binder, not shown: large carriers) TVPPMVNHLARGDDLTYCRASGFYPWNITLSWRQDGVSLSHDTQQWGDVLPDGNGTYQTWVATRICQGEEQRFTCYMEHSGNHSTHPVPSGK | 0.657 | 0.707 | –
M13 phage pKK108 displaying MICA α3 domain with tight T-3.5 in loop 1 (designed binder, α3 amplified from pKK53; also called 1-T-3.5; not shown: M13 phage capsid protein pIII, C-terminal portion, fused at codon position 198) TVPPMVNGSRGDSLIMHCRASGFYPWNITLSWRQDGVSLSHDTQQWGDVLPDGNGTYQTWVATRICQGEEQRFTCYMEHSGNHSTHPVPSGK | -0.204 | -0.09 | –
M13 phage pKK136 displaying MICA α3 domain with extended 5.1sp in loop 1 and extended 3.2sp in loop 3 (designed binder, not shown: large carriers) TVPPMVNVTSGGSGGGSVTRGDTFTQSSGGSGGGVTCRASGFYPWNITLSWRQDGVSLSHDTQQWGDVLPDGNGTYQTWVATRISGGSGGGSTSRGDHPRTQSGGSGGGCYMEHSGNHSTHPVPSGK | 4.28 | 2.46 | –
M13 phage pKK139 displaying MICA α3 domain with extended 5.1sp in loop 1 and extended 5.1spNH in loop 3 (designed binder, not shown: large carriers) TVPPMVNVTSGGSGGGSVTRGDTFTQSSGGSGGGVTCRASGFYPWNITLSWRQDGVSLSHDTQQWGDVLPDGNGTYQTWVATRISGGSGGGSVTRGDTFTQSSGGSGGGCYMEHSGNHSTHPVPSGK | 5.36 | 2.48 | –
M13 phage pKK138 displaying MICA α3 domain with extended 5.1sp in loop 1 and extended 5.3sp in loop 3 (designed binder, not shown: large carriers) TVPPMVNVTSGGSGGGSVTRGDTFTQSSGGSGGGVTCRASGFYPWNITLSWRQDGVSLSHDTQQWGDVLPDGNGTYQTWVATRISGGSGGGSHLARGDDLTYSGGSGGGCYMEHSGNHSTHPVPSGK | 2.75 | 0.886 | –
M13 phage pKK104 displaying MICA α3 domain with extended loop 3.2sp in loop 3 (designed binder, not shown: large carriers) TVPPMVNVTRSEASEGNITVTCRASGFYPWNITLSWRQDGVSLSHDTQQWGDVLPDGNGTYQTWVATRISGGSGGGSTSRGDHPRTQSGGSGGGCYMEHSGNHSTHPVPSGK | 1.12 | 0.791 | –
M13 phage pKK105 displaying MICA α3 domain with extended loop 3.3sp in loop 3 (designed binder, not shown: large carriers) TVPPMVNVTRSEASEGNITVTCRASGFYPWNITLSWRQDGVSLSHDTQQWGDVLPDGNGTYQTWVATRISGGSGGGSRVPRGDSDLTSGGSGGGCYMEHSGNHSTHPVPSGK | 1.11 | 1.33 | –
M13 phage pKK112 displaying MICA α3 domain with tight T-AMY (loop 1 from tendamistat) in loop 1 (designed binder, not shown: large carriers) TVPPMVNYQSWRYSQCRASGFYPWNITLSWRQDGVSLSHDTQQWGDVLPDGNGTYQTWVATRICQGEEQRFTCYMEHSGNHSTHPVPSGK | 0.515 | 0.46 | –
M13 phage pKK97 displaying MICA α3 domain with loop 5.2 in loop 1 (designed binder, not shown: large carriers) TVPPMVNVTRGDTFTQSVTCRASGFYPWNITLSWRQDGVSLSHDTQQWGDVLPDGNGTYQTWVATRICQGEEQRFTCYMEHSGNHSTHPVPSGK | 2.59 | 1.55 | –
M13 phage pKK100 displaying MICA α3 domain with extended loop 3.2sp in loop 1 (designed binder, not shown: large carriers) TVPPMVNVTSGGSGGGSTSRGDHPRTQSGGSGGGVTCRASGFYPWNITLSWRQDGVSLSHDTQQWGDVLPDGNGTYQTWVATRICQGEEQRFTCYMEHSGNHSTHPVPSGK | 0.186 | 0.201 | –
M13 phage pKK101 displaying MICA α3 domain with extended loop 3.3sp in loop 1 (designed binder, not shown: large carriers) TVPPMVNVTSGGSGGGSRVPRGDSDLTSGGSGGGVTCRASGFYPWNITLSWRQDGVSLSHDTQQWGDVLPDGNGTYQTWVATRICQGEEQRFTCYMEHSGNHSTHPVPSGK | 1.23 | 1.49 | –
M13 phage pKK102 displaying MICA α3 domain with extended loop 5.1sp in loop 1 (designed binder, not shown: large carriers) TVPPMVNVTSGGSGGGSVTRGDTFTQSSGGSGGGVTCRASGFYPWNITLSWRQDGVSLSHDTQQWGDVLPDGNGTYQTWVATRICQGEEQRFTCYMEHSGNHSTHPVPSGK | 0.771 | 1.02 | signal (integrin αVβ5 [5]; record 2): 1.5 OD; signal (integrin αVβ3 [6]; record 2): 1.45 OD
M13 phage pKK103 displaying MICA α3 domain with extended loop 5.3sp in loop 1 (designed binder, not shown: large carriers) TVPPMVNVTSGGSGGGSHLARGDDLTYSGGSGGGVTCRASGFYPWNITLSWRQDGVSLSHDTQQWGDVLPDGNGTYQTWVATRICQGEEQRFTCYMEHSGNHSTHPVPSGK | 0.491 | 0.688 | signal (integrin αVβ5 [5]; record 2): 0.814 OD; signal (integrin αVβ3 [6]; record 2): 0.587 OD
